From article PMC4066749, “A sequence-based approach for prediction of CsrA/RsmA targets in bacteria with experimental validation in Pseudomonas aeruginosa” (Nucleic Acids Research, 2014) come the findings set out here.

The series concerns the molecule itself. As to the kind of experiment: SEC; Superdex 75 HR 10/30 analytical column calibrated with a Gel Filtration LMW Calibration Kit; absorbance at 280 nm; apparent molecular weights from elution volumes. On the technique in general: SEC sorts molecules by how far they enter the pores of the column.

B1: RsmA-R44A mutant (natural protein)
chain: MLILTRRVGETLMVGDDVTVTVLGVKGNQVRIGVNAPKEVAVHAEEIYQRIQKEKDQEPNH
notes: RsmA of Pseudomonas aeruginosa with R44A; also called the mutant
With B1, the binding result was “binds”.

B2: RsmA (regulator of secondary metabolism), His-tagged (natural protein)
chain: not shown
notes: also called CsrA homolog; wild-type RsmA protein; source: purification from E. coli
For orientation: stoichiometry N means the number of molecules, sites or subunits per partner or assembly. As for B2, the “stoichiometry N” value was found to be 2.
